# Measurements: the supplement of paper PMC7877785
# ± gives the uncertainty stated by the source.
# Assay: self-splicing fitness, log relative to wild type (ln ratio); higher = more splicing; Tetrahymena group I intron in knt gene, E. coli kanamycin selection, DiMSum; sequences stand for … in CUCUCU…GGAGGGAAAAGUUAUCAGGCAUGCACCUGGUAGCUAGUCUUUAAACCAAUAGAUUGCAUCGGUUUAAAAGGCAAGACCGUCAAAUUGCGGGAAAGGGGUCAACAGCCGUUCAGUACCAAGUCUCAGGGGAAACUUUGAGAUGGCCUUGCAAAGGGUAUGGUAAUAAGCUGACGGACAUGGUCCUAACCACGCAGCCAAGUCCUAAGUCAACAGAUCUUCUGUUGAUAUGGAUGCAGUUCACAGACUAAAUGUCGGUCGGGGAAGAUGUAUUCUUCUCAUAAGAUAUAGUCGGACCUCUCCUUAAUGGGAGCUAGCGGAUGAAGUGAUGCAACACUGGAGCCGCUGGGAACUAAUUUGUAUGCGAAAGUAUAUUGAUUAGUUUUGGAGUACUCGUGGUCG
# Procedure, shortened: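 The eight P1ex-region nucleotides of an intron in the knt kanamycin-resistance gene on pET-22b(+) were all randomised and the library put into E. coli BL21(DE3). Six replicate transformations were grown overnight at 37°C or 30°C on LB agar with or without 25 μg/mL kanamycin, together with 100 μg/mL carbenicillin, 50 μM IPTG and 0.2% rhamnose. Colonies were pooled and amplicon-sequenced on an Illumina HiSeq 2500. Fitness from DiMSum is the error-weighted combination of wild-type-normalised replicate fold changes, kanamycin over none.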
Sequence,self-splicing fitness (ln) (30 °C),self-splicing fitness (ln) (37 °C)
GUUCAGCAAUAUUACGUGUC,-0.83 ± 0.097,0.00179 ± 0.094
GUUCAGCAAUAUUACGUUCA,-0.741 ± 0.12,-0.425 ± 0.13
GUUGAGCAAUAUUACGACCG,–,-1.77 ± 0.47
GUUGAGCAAUAUUACGAUGC,-2.24 ± 0.49,-2.24 ± 0.45
GUUGAGCAAUAUUACGCAAG,-2.77 ± 0.21,-1.79 ± 0.26
GUUGAGCAAUAUUACGCAAU,-2.68 ± 0.2,-3.31 ± 0.29
GUUGAGCAAUAUUACGCAGG,-3.35 ± 0.28,-1.75 ± 0.37
GUUGAGCAAUAUUACGCGCC,-2.97 ± 0.37,–
GUUGAGCAAUAUUACGCUCG,-2.49 ± 0.16,-2.34 ± 0.3
GUUGAGCAAUAUUACGCUCU,-2.49 ± 0.47,–
GUUGAGCAAUAUUACGGGAC,-2.69 ± 0.34,-1.49 ± 0.35
GUUGAGCAAUAUUACGGUGU,-2.22 ± 0.2,-1.1 ± 0.33
GUUGAGCAAUAUUACGGUUA,-1.88 ± 0.28,-2.09 ± 0.24
GUUGAGCAAUAUUACGUCAC,-3.41 ± 0.43,-1.86 ± 0.23
GUUGAGCAAUAUUACGUGAG,-1.93 ± 0.15,-1.42 ± 0.19
GUUGAGCAAUAUUACGUGUC,-2.34 ± 0.14,-2.2 ± 0.2
GUUGAGCAAUAUUACGUUCG,-1.34 ± 0.086,-1.67 ± 0.11
GUUGAGCAAUAUUACGUUGU,-3.09 ± 0.23,-1.68 ± 0.17
GUUUAGCAAUAUUACGAAAA,-1.78 ± 0.29,-0.97 ± 0.25
GUUUAGCAAUAUUACGAAGA,–,-0.651 ± 0.34
GUUUAGCAAUAUUACGAAGU,-2.65 ± 0.16,-2.03 ± 0.38
GUUUAGCAAUAUUACGAGCA,-1.35 ± 0.25,-0.983 ± 0.48
GUUUAGCAAUAUUACGAGCU,–,-0.552 ± 0.27
GUUUAGCAAUAUUACGAGGA,-2.48 ± 0.44,-1.79 ± 0.37
GUUUAGCAAUAUUACGAGGC,-2.48 ± 0.24,-2.45 ± 0.24

Sequence,self-splicing fitness (ln) (30 °C),self-splicing fitness (ln) (37 °C)
GUUUAGCAAUAUUACGCCCU,-0.651 ± 0.098,-0.533 ± 0.11
GUUUAGCAAUAUUACGCCUU,-1.21 ± 0.17,-0.678 ± 0.21
GUUUAGCAAUAUUACGCGAA,-3.53 ± 0.49,-2.01 ± 0.22
GUUUAGCAAUAUUACGCGCA,-0.466 ± 0.1,-0.363 ± 0.12
GUUUAGCAAUAUUACGCUCG,-0.147 ± 0.15,0.0286 ± 0.21
GUUUAGCAAUAUUACGGACU,–,1.32 ± 0.45
GUUUAGCAAUAUUACGGCAA,-0.678 ± 0.14,-1.03 ± 0.13
GUUUAGCAAUAUUACGGCUC,0.0411 ± 0.094,0.193 ± 0.12
GUUUAGCAAUAUUACGGGGC,-2.67 ± 0.33,–
GUUUAGCAAUAUUACGGUCA,-1.26 ± 0.19,-0.326 ± 0.16
GUUUAGCAAUAUUACGGUUU,-1.32 ± 0.1,-0.0737 ± 0.13
GUUUAGCAAUAUUACGUAUC,-0.904 ± 0.28,-0.233 ± 0.36
GUUUAGCAAUAUUACGUCAC,-3.24 ± 0.24,-0.353 ± 0.17
GUUUAGCAAUAUUACGUCCU,-1.12 ± 0.24,-1.03 ± 0.25
GUUUAGCAAUAUUACGUCUU,-0.801 ± 0.11,-0.25 ± 0.11
GUUUAGCAAUAUUACGUGCC,-2.91 ± 0.36,–
GUUUAGCAAUAUUACGUUGG,-3.81 ± 0.37,-1.45 ± 0.23
UAAAAGCAAUAUUACGAAAA,-2.94 ± 0.2,-1.71 ± 0.16
UAAAAGCAAUAUUACGAACA,-0.822 ± 0.072,0.504 ± 0.11
UAAAAGCAAUAUUACGAACC,-3.12 ± 0.36,-1.25 ± 0.45
UAAAAGCAAUAUUACGACCC,-1.73 ± 0.28,0.481 ± 0.33
UAAAAGCAAUAUUACGACGA,-0.526 ± 0.087,-0.201 ± 0.086
UAAAAGCAAUAUUACGAGCU,-2.07 ± 0.11,-1.68 ± 0.14
UAAAAGCAAUAUUACGAUCA,-0.503 ± 0.08,0.0071 ± 0.11
UAAAAGCAAUAUUACGCAAG,-1.48 ± 0.06,-0.639 ± 0.073
